Molecular target: Sso7d(W24A/R43E)-HTLV-1 IN(E156Q) (HTLV-1)
Assay: cryo-EM structure; SEC-purified HTLV-1 intasome (strand-transfer complex) of Sso7d-IN(E156Q), B56γ(11–380) and branched viral U5 LTR/target DNA; 3.7 Å, C2 symmetry imposed

Sso7d(W24A/R43E)-HTLV-1 IN(E156Q) (enzyme)
stoichiometry N: 4
